The values that follow are results of earlier work, collected in publication PMC4286324.

In the data set the target is Nef (Human immunodeficiency virus 1) (UniProt P04324).

pKd: −log10 of the molar value.

Usually pKd stands for the negative decadic logarithm of the Kd, by convention in mol/L. Regarding Hck SH3 (from UniProt P08631), the pKd was 6.60.
